A short description of this series: protein stability index of a GFP-peptide fusion (yeast GPS) (PSI 1-4); higher = more stable; sorted into four equal gates, so the index is relative within each strain. The gist of the method:
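Plasmids in a pooled yeast library fused tiled 17-residue yeast protein peptides downstream of GFP and also expressed Cherry. Mid-log cultures grown without leucine were sorted into four equal gates by GFP/Cherry fluorescence ratio. Each gate's plasmids were PCR-amplified and Illumina-sequenced, and reads were matched to strains by barcodes. The protein stability index is derived by multiplying each gate's read frequency by its gate number and summing the results.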

± gives the uncertainty stated by the source.

On to VFYRMQQLRRALPDVVV [RPO31], for which the protein stability index worked out at 1.83 ± 0.038 (doa10∆), 1.93 ± 0.035 (pdr5∆), 1.82 ± 0.074 (san1∆) and 1.99 ± 0.047 (ubr1∆).

For the sequence LRKNKLGYARFILLDRL [SMC4], the protein stability index turned out to be 1.15 ± 0.042 (doa10∆), 1.25 ± 0.048 (pdr5∆), 1.14 ± 0.14 (san1∆) and 1.15 ± 0.055 (ubr1∆).

In the case of GLGETSGDNHTQQSHEQ [RPT4], the protein stability index was 3.32 ± 0.14 (doa10∆), 3.19 ± 0.21 (pdr5∆) and 3.23 ± 0.22 (ubr1∆).

On to SKQQAKGAFQKVAATSR [RPL24A], for which the protein stability index was 2.52 ± 0.043 (doa10∆), 2.99 ± 0.045 (pdr5∆), 2.84 ± 0.036 (san1∆) and 2.8 ± 0.038 (ubr1∆).

AASAAGYDRHITIFSPE [SCL1] yielded a protein stability index (doa10∆) of 2.86 ± 0.11, a protein stability index (pdr5∆) of 2.76 ± 0.075, a protein stability index (san1∆) of 2.87 ± 0.064 and a protein stability index (ubr1∆) of 2.95 ± 0.051.

In the case of HRINMDKYHPGYFGKVG [RPL28], the protein stability index is, setting by setting: (doa10∆) 3.4 ± 0.074; (pdr5∆) 3.41 ± 0.059; (san1∆) 3.24 ± 0.061; (ubr1∆) 3.24 ± 0.068.

As for FGSGTQNNNTLGGGGLF [YGR119C/NUP57], the protein stability index was 3.37 ± 0.083 (doa10∆), 2.94 ± 0.089 (pdr5∆), 3.07 ± 0.061 (san1∆) and 3.11 ± 0.054 (ubr1∆).

Turning to KKQVHVYRFVTENAIEE [ISW2], the protein stability index came out at 1.68 ± 0.07 (doa10∆), 1.77 ± 0.075 (pdr5∆), 1.87 ± 0.12 (san1∆) and 1.91 ± 0.045 (ubr1∆).

Consider NLGSRTKNNTQASGITA [SSN3], for which the protein stability index came to 2.44 ± 0.065 (doa10∆), 2.38 ± 0.045 (pdr5∆), 2.18 ± 0.054 (san1∆) and 2.65 ± 0.043 (ubr1∆).

Sequence TQHEEEEEQDTGESEES [IRR1] gave a protein stability index (pdr5∆) of 3.29 ± 0.1, a protein stability index (san1∆) of 3.26 ± 0.092 and a protein stability index (ubr1∆) of 3.39 ± 0.15.

As for VSNRVAAPARAGAVAPE [RPP0], the protein stability index reads like this: (doa10∆) 2.06 ± 0.11; (pdr5∆) 2.54 ± 0.097; (san1∆) 2.64 ± 0.11; (ubr1∆) 2.56 ± 0.17.

For the sequence KGIAKEHAKWGPAAAIE [RPB3], the protein stability index was 3.11 ± 0.12 (doa10∆), 3.32 ± 0.1 (pdr5∆), 3.06 ± 0.13 (san1∆) and 2.9 ± 0.055 (ubr1∆).

Take PYMNHKNTSSMDFLNSM [GAL11]: the protein stability index stood at 1.87 ± 0.056 (doa10∆), 1.69 ± 0.055 (pdr5∆), 2.48 ± 0.089 (san1∆) and 3.04 ± 0.044 (ubr1∆).

Consider QDPKTLVALLSRDLWCF [SSN2], for which the protein stability index came out at 1.39 ± 0.057 (doa10∆), 1.34 ± 0.043 (pdr5∆), 1.31 ± 0.15 (san1∆) and 1.54 ± 0.073 (ubr1∆).

On to DFKAKYCDSMGRPQRKM [RPB5], for which the protein stability index came out at 3.44 ± 0.24 (doa10∆), 3.18 ± 0.15 (pdr5∆), 3.22 ± 0.17 (san1∆) and 3.32 ± 0.1 (ubr1∆).

As for KGVGRRYSNLVCKKADV [RPS18A], the protein stability index stood at 3.46 ± 0.2 (doa10∆), 2.37 ± 0.11 (pdr5∆), 1.74 ± 0.1 (san1∆) and 2.49 ± 0.074 (ubr1∆).

For the sequence IATGCKDGRIRIFKITE [YGL100W/SEH1], the protein stability index was 2.22 ± 0.069 (doa10∆), 2.47 ± 0.066 (pdr5∆), 2.21 ± 0.094 (san1∆) and 2.43 ± 0.046 (ubr1∆).

Consider VLMERKDERGEGEAKQK [ITC1], for which the protein stability index is, setting by setting: (doa10∆) 2.94 ± 0.21; (pdr5∆) 3.35 ± 0.24; (ubr1∆) 3.07 ± 0.22.

For SLLLSSVKESTGMSSMS [SRB4], the protein stability index reads like this: (doa10∆) 1.96 ± 0.081; (pdr5∆) 2.21 ± 0.078; (san1∆) 1.57 ± 0.21; (ubr1∆) 1.22 ± 0.13.

In the case of ETIIFDSELNRALFETK [RRI1], the protein stability index reads like this: (doa10∆) 3.03 ± 0.14; (pdr5∆) 2.66 ± 0.14; (san1∆) 3.2 ± 0.062; (ubr1∆) 3.35 ± 0.17.

Consider KILVLTGAGVSTSLGIP [SIR2], for which the protein stability index came to 2.35 ± 0.042 (doa10∆), 2.34 ± 0.057 (pdr5∆), 2.76 ± 0.054 (san1∆) and 2.69 ± 0.051 (ubr1∆).

In the case of IETLDPALIRPGRIDRK [RPT2], the protein stability index turned out to be 2.53 ± 0.26 (doa10∆), 3.18 ± 0.19 (pdr5∆), 2.88 ± 0.24 (san1∆) and 3.02 ± 0.2 (ubr1∆).

Turning to TKNLSILTSKVNAIKNE [DSN1], the protein stability index was 1.66 ± 0.076 (doa10∆), 2.13 ± 0.056 (pdr5∆), 2.39 ± 0.11 (san1∆) and 1.69 ± 0.06 (ubr1∆).

Turning to VSITDAPKIHILDPSTE [YMR129W/POM152], the protein stability index worked out at 1.56 ± 0.055 (doa10∆), 1.95 ± 0.056 (pdr5∆), 1.53 ± 0.061 (san1∆) and 1.54 ± 0.061 (ubr1∆).

As for LLRALKTNEESAKMILL [PRP8], the protein stability index by setting is: (doa10∆) 3.05 ± 0.099; (pdr5∆) 2.98 ± 0.1; (san1∆) 2.86 ± 0.071; (ubr1∆) 2.92 ± 0.037.

For WVQLVQIIVTDGKLEPS [YJL039C/NUP192], the protein stability index (doa10∆) turned out to be 1.27 ± 0.065, the protein stability index (pdr5∆) came to 1.32 ± 0.085, the protein stability index (san1∆) was 1.19 ± 0.098 and the protein stability index (ubr1∆) worked out at 1.27 ± 0.07.
